Two molecules from patent US20140094385, “SEQUENCE-SPECIFIC ENGINEERED RIBONUCLEASE H AND THE METHOD FOR DETERMINING THE SEQUENCE PREFERENCE OF DNA-RNA HYBRID BINDING PROTEINS” (MIEDZYNARODOWY INSTYUT BIOLOGII MOLEKULARNEJ I KOMORKOWEJ, published 2014) can be followed below.

Usually Kd stands for a measure of binding affinity in units of concentration.

The target of this data set is GST-ZfQQR (zinc finger ZfQQR) (artificial). In words: filter; 25 mM Tris pH 8.0, 100 mM KCl, 20 uM ZnSO4, 2 mM DTT, poly dI-dC, room temperature; protein called zinc finger ZfQQR, GST fusion is the purified form described. The settings on record: tags: N-terminal GST (pGEX-4T-1); label: radioactive. The procedure:
To confirm that the consensus sequence obtained after five rounds of SELEX is bound by the zinc finger, a constant KD was measured using the nitrocellulose filter binding method. The assay was performed with radioactively labeled substrates described in the literature (LDNA, LRNA) and a consensus sequence (CDNA, CRNA) see FIG. 16:
Binding reaction contained 2 nM of labeled substrate, 2 μg poly dI-dC as a nonspecific competitor, 25 mM Tris pH 8.0, 100 mM KCl, 20 μM ZnSO₄, 2 mM DTT. The binding reaction was incubated for 30 min at room temperature and then filtered immediately through a nitrocellulose filter and washed with 8 volumes of reaction buffer of 25 mM Tris pH 8.0, 100 mM KCl, 20 μM ZnSO₄, 2 mM DTT. Measurement of the intensity of the signal coming from the retention of radioactively labeled substrate was made on an audioradiogram of the nitrocellulose filter using a Typhoon Trio scanner and ImageQuant TL software.

GST-ZfQQR (zinc finger ZfQQR) (artificial), sequence (chain, as listed by the source): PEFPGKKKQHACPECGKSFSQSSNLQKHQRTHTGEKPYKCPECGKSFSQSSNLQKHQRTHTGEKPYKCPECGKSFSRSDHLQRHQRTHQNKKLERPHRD

B1: SELEX consensus hybrid (CDNA/CRNA) (DNA:RNA)
DNA: TCACTGGTCGGTGGGAATCCTC
RNA: GAGGAUUCCCACCGACCAGUGA
On to B1, for which the dissociation constant Kd worked out at 155 nM.

B2: literature ZfQQR site hybrid (LDNA/LRNA) (DNA:RNA)
DNA: TCACTGGGGAAGAAGAATCCTC
RNA: GAGGAUUCUUCUUCCCCAGUGA
Turning to B2, the Kd was 188 nM.
